The results in this text go back to article PMC6052341, “Phosphorylation of FtsZ and FtsA by a DNA Damage-Responsive Ser/Thr Protein Kinase Affects Their Functional Interactions in Deinococcus radiodurans” (mSphere, 2018).

The labels stand for the following.
B1: FtsZ of Deinococcus radiodurans, purified recombinant (natural protein, UniProt Q9RWN5 1-371, looked up)
chain: MQAARIRVIGLGGAGNNAVNRMIESGLEGVEFIAGNTDAQVLAKSHAEVRIQLGDRLTRGLGAGADPKVGEEAAVEDRDRIKEYLDDTDMLFITAGMGGGTGTGSAPVVAEIAREMGILTVAIVTRPFKFEGPKRMRVAEEGMSKLADRVDGMIVVNNEKLLTAVDKKVSFREAFLIADRVLYYGVKGISDVINVEGMINLDFADVRNLLANSGTVLMGIGAGRGDKMAEEAAMSAIHSPLLERGIEGARRILVNVTGGYDLSMTDANEIVEKIREATGFDDPDILFGITPDEAAGDEVRVTVIATGFGDNTYAAPLGGVVSSGRGGYDQGGYGSGLVRPVRGGQGGLGGGSSYDPKDYDIPAFLRNVGGQ
notes: FtsZ, cell division protein of Deinococcus radiodurans R1; also called FZ; unphosphorylated FtsZ; source: E. coli BL21(DE3) pLysS from pFTSZ, purified (nickel-chelating Sepharose, Ni-NTA agarose)
B2: P-FtsZ, phosphorylated form of FtsZ of Deinococcus radiodurans, purified recombinant (natural protein, UniProt Q9RWN5 1-371, looked up)
chain: B1 chain
modifications: phosphorylated by co-expressed RqkA (checked with anti-phospho-Ser/Thr antibodies); sites mapped on FtsZ phosphorylated by RqkA in vitro: serine 235 and serine 335
notes: FtsZ, cell division protein of Deinococcus radiodurans R1; same plasmid as m1, co-expressed with the kinase RqkA; also called PFZ; phosphorylated FtsZ
B3: FtsA of Deinococcus radiodurans, purified recombinant (natural protein, UniProt Q9RWN6 1-517, looked up)
chain: MRENSIIVGLDIGTTKITTVIGEVAPDGTIDIIGEGSVPSEGMKRGSVINLERATQAIKQSLHAAERVSGVRAWNVFVSVGGNHTKAMTSHGLAAIRRQQEISPPDVERAIENARAVPLDPSLEILHTIPQEYVVDGQEGIKNPVGMHGVRLEVDVHIVAGSAGPLLNLRRCVQEAGLQIEGFVLHSLASGLATLDHSEQNQTTVVVDMGGGTTDIGVFKRGNLAHSASIPIGGDHVTADLAQILKIPMEEAEKVKRHYGAAIPELADQELTLEITTASGATHAISAYELSRVIRPRVSEIYGLIRDEIDQALGPVELVAQSVVLTGGGAQLPGAVDLARERFRLPTRLGRPRGIHGLSDIVGDPAHACSVGMVLYGITQDGRVPSGLDDGGDPAGYTEYAGRHDQGYPQGGYPAPGYLTAPTGGTHVAPQGTPGSYPGPGYVVSGGQSQGQPYPPMPNTGSHSAGVPSMSGPVIGGQVVGVDPHAQVLVDGQPQRPPSGPKVSLMDRVRSLFRDWF

Experiment [1] has as its target B3. Description: SPR; reverse manner: FtsZ or P-FtsZ (20 µM) immobilised on a bare gold sensor chip; FtsA or P-FtsA (4 to 20 µM) in the mobile phase. To be noted: both partners purified. In general terms: Surface plasmon resonance follows binding to a sensor surface in real time, without labels.
The target of experiment [2] is T1, P-FtsA, phosphorylated form of FtsA of Deinococcus radiodurans, purified recombinant (Deinococcus radiodurans, UniProt Q9RWN6 1-517, phosphorylated by co-expressed RqkA (checked with anti-phospho-Ser/Thr antibodies); sites reported for FtsA: threonine 272, serine 370 and serine 386).
T1 construct: FtsA, cell division protein of Deinococcus radiodurans R1; same plasmid as m3, co-expressed with the kinase RqkA; also called phosphorylated FtsA
T1 sequence (looked up): B3 chain
The experiment is described as above. To be noted: both partners purified.

Experiment [3] deals with B3. Description: SPR; FtsA or P-FtsA (25 µM) immobilised on a bare gold sensor chip by EDC-NHS chemistry at 20°C, about 200 response units; running buffer 20 mM Tris pH 7.6; FtsZ or P-FtsZ (6 to 30 µM) with 1 mM GTP and 1 mM MgCl2 in the mobile phase; AutoLab Esprit. The conditions noted are these: both partners purified.
Experiment [4] concerns the target T1, P-FtsA, phosphorylated form of FtsA of …. The description is as above. To be noted: both partners purified.
For experiment [5], the target named is B1. Description: cell-based or functional assay.

In general, Kd refers to the concentration at which binding is half-saturated. On to B1, for which the Kd stood at 7.93 µM in experiment [1], 5.17 µM in experiment [2], 6.83 µM in experiment [3] and 8.35 µM in experiment [4].
As for B2, the Kd in experiment [1] was 65.2 µM; in experiment [2] it was 58.3 µM; in experiment [3], 10.3 µM; in experiment [4], 15 µM.
B3: in experiment [5], the “stimulation of the GTPase activity of 5 µM FtsZ by 5 µM FtsA (malachite green assay; TLC of [32P]GTP to [32P]GDP)” value was around 1.5 fold.
